Measured values reported in patent US20230079439A1 (University of California, published 2023).
Numbered stars: 1 amine (or outer) side, 2 acyl side, 3 side chain; on linkers, the order of the positions; unused ones are H or OH. Suc = O=C(CCC(=O)[*:2])[*:1]

Molecular target: neurexins (NXs) located on the plasma membrane of INS-1E cells (rat)
Assay: cell-based or functional assay

B1: HSA-112 (HSA-28 dimer formed by bridging two HSA-28 monomers via amide bonds with active ester PEG2000) (peptide)
peptide: {PEG2000-Suc}-QQGEFLNYD-NH2
modifications: also: dimer of two HSA-28 monomers bridged via PEG2000
- EC50 of the increase of GSIS in INS-1E cells: 32 µM
